Results from paper PMC10724205.

How the values were obtained:
[1] = biological target: CLP1; experiment: BioID (proximity biotinylation, streptavidin isolation, mass spectrometry); conditions: HEK293T cells, transient transfection, biotin, 24 h; n = 3; read off a plot
[2] = biological target: DNTTIP2; experiment: as above; conditions: HEK293T cells, transient transfection, biotin, 24 h; n = 3; read off a plot
[3] = biological target: TCF4; experiment: as above; conditions: HEK293T cells, transient transfection, biotin, 24 h; n = 3; read off a plot
[4] = biological target: p300 (UniProt Q09472); experiment: as above; conditions: HEK293T cells, transient transfection, biotin, 24 h; n = 3; read off a plot
UniProt Q09472, sequence (Q09472 whole entry): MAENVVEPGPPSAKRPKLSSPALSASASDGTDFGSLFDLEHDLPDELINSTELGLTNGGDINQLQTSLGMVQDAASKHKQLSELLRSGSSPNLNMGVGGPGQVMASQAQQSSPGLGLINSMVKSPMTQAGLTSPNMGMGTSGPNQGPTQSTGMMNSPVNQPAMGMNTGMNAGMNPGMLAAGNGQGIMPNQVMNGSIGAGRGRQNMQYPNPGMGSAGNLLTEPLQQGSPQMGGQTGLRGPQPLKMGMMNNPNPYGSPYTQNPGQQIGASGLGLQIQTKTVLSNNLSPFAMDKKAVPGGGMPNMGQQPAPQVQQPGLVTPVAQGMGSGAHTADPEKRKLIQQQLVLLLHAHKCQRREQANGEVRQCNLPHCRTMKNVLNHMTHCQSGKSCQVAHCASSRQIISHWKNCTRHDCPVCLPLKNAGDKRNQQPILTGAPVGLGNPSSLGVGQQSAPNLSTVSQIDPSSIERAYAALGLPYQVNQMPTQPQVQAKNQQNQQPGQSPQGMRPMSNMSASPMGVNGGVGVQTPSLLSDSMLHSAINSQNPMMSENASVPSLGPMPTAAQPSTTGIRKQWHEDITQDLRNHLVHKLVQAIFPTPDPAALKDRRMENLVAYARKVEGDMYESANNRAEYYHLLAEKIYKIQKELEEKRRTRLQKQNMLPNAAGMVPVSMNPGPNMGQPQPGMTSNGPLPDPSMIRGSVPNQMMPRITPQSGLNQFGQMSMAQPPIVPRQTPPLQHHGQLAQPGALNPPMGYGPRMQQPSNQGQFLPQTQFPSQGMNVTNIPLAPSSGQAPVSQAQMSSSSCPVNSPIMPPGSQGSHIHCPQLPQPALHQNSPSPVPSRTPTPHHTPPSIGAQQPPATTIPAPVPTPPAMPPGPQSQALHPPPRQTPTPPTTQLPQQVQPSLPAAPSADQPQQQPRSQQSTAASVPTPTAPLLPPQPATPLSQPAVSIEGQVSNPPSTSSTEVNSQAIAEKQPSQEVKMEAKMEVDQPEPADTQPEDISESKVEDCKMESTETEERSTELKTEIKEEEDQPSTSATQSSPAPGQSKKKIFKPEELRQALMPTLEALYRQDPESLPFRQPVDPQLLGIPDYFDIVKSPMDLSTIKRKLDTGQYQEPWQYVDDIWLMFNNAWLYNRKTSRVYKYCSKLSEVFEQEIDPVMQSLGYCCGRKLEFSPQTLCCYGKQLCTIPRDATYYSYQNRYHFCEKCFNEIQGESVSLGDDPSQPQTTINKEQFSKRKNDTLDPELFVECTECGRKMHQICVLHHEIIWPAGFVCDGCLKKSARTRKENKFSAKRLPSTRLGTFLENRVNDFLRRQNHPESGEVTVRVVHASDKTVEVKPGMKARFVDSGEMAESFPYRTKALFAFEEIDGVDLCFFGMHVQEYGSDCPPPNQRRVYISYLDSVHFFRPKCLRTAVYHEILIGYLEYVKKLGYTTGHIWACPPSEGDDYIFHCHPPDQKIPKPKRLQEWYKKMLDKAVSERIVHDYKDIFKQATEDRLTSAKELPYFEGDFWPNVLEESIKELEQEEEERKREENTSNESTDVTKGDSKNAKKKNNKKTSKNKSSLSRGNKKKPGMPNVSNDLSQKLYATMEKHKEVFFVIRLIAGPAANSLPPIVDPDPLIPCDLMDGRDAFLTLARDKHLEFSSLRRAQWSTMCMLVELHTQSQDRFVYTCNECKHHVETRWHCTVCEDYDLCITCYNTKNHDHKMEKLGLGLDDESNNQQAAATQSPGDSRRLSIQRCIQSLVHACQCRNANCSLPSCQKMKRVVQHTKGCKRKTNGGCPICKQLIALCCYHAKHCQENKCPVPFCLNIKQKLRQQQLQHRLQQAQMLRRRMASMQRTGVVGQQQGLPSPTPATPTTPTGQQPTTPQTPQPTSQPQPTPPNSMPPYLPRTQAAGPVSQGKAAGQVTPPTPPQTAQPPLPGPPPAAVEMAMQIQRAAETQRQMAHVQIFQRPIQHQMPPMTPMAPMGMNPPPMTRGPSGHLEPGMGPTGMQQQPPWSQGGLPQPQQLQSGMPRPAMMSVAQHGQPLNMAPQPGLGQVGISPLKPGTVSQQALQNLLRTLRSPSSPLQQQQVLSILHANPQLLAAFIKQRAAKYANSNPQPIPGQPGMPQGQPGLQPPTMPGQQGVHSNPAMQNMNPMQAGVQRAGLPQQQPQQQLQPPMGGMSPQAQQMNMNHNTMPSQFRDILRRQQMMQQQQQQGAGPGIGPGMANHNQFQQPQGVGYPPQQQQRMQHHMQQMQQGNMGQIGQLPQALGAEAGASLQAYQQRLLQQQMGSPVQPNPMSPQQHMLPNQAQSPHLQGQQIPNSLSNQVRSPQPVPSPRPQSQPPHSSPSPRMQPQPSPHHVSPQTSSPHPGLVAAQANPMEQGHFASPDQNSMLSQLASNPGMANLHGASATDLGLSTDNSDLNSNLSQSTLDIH

[5] = biological target: TAF9 (UniProt Q16594); experiment: as above; conditions: HEK293T cells, transient transfection, biotin, 24 h; n = 3; read off a plot
UniProt Q16594, sequence (Q16594 whole entry): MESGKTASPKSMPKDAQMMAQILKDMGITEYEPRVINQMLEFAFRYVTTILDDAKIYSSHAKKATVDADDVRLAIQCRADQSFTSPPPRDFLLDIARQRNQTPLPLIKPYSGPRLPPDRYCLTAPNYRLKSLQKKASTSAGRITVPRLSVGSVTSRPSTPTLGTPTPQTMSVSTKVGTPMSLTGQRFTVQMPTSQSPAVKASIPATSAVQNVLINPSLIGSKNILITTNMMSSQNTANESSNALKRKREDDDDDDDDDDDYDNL

[6] = biological target: MED6 (UniProt O75586); experiment: as above; conditions: HEK293T cells, transient transfection, biotin, 24 h; n = 3; read off a plot
UniProt O75586, sequence (O75586 whole entry): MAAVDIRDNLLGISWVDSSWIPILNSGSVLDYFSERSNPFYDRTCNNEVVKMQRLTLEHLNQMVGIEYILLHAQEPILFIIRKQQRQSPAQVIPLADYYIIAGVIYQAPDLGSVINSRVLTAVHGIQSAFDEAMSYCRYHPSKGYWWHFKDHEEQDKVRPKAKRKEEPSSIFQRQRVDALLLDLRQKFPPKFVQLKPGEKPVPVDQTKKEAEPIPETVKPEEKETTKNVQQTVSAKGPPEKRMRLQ

[7] = biological target: YY1; experiment: as above; conditions: HEK293T cells, transient transfection, biotin, 24 h; n = 3; read off a plot
[8] = biological target: LacI-CFP-FOXO1 fusion protein with the small C-terminal AD deleted; experiment: LacO array recruitment assay; U2OS cells with 50,000 Lac operon repeats on chromosome 1, transfected with CFP-LacI-FOXO1 fusion baits; endogenous p300 detected at the CFP dot by immunofluorescence after 48 h; dots counted for presence or absence of p300
[9] = biological target: LacI-CFP-FOXO1 fusion protein with the C793S mutant FOXO1 domain; experiment: as above

Row | Substance | other: Log2 (fold change) of total spectral counts [1] | other: Log2 (fold change) of total spectral counts [2] | other: Log2 (fold change) of total spectral counts [3] | other: Log2 (fold change) of total spectral counts [4] | other: Log2 (fold change) of total spectral counts [5] | other: Log2 (fold change) of total spectral counts [6] | other: Log2 (fold change) of total spectral counts [7] | reduction of p300 recruitment against the FOXO1 part of P3F [8] [percent] | loss of p300 recruitment against the wt FOXO1 [9] [percent]
1 | BirA-Flag/PAX3-FOXO1 fusion construct (wildtype P3F) C793S | 2.2 | 2.5 | 1.4 | 0.7 | 3.8 | 1.2 | 2.4 |  | 
2 | p300 (endogenous in U2OS cells) (from UniProt Q09472 1-2414) (natural protein) |  |  |  |  |  |  |  | 90 | 30
